Assay results taken from the supplement of paper PMC6757056.
± gives the standard deviation of the averaged measurements.

B1: library; a variant is named by its letters at N, in order (parent)
chain: GCUGUCACCGGUGUAUUACCCUAGUGGUCGACCGGUCUGAUGAGUCUNNNNNNAGACGAAACAGC

Key:
[1] = variants of: B1; assay: normalized RNA/DNA level with ligand (relative to sTRSVctl = 100) (log10 (% of sTRSVctl)); ligand: hypoxanthine (xanthine aptamer); higher = less ribozyme self-cleavage, higher mRNA level; conditions: ligand concentration (+) RNA-Seq: 5 mM, HEK293T, reporter: mCherry (pCS4076), ligand present: yes
Summary of the method: (§1)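 For each 6-well well, 4 µg of library plasmid encoding mCherry-linked ribozyme switches, or eGFP-linked ones in some ligand experiments, was transfected into HEK293T. Any ligand was added 1 h before transfection, and RNA was extracted with EDTA 72 h after it, then reverse-transcribed, amplified, barcoded and sequenced. RNA level was obtained by dividing RNA reads by DNA reads, normalizing to a spiked-in non-cleaving sequence or to the top sequences, then scaling and log-transforming. The top set was 25 sequences, scaling was ×100 with log10, and ≥100 DNA reads were required.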

[2] = variants of: B1; assay: normalized RNA/DNA level without ligand (relative to sTRSVctl = 100) (log10 (% of sTRSVctl)); ligand: hypoxanthine (xanthine aptamer); higher = less ribozyme self-cleavage, higher mRNA level; conditions: HEK293T, reporter: mCherry (pCS4076), ligand present: no
Summary of the method: as §1

Variant | normalized RNA/DNA level with ligand (log10) [1] | normalized RNA/DNA level without ligand (log10) [2]
CAGUCU | 1.98 ± 0.005 | 1.792 ± 0.016
CAGUCA | 1.93 ± 0.025 | 1.6768 ± 0.0013
CAGUCC | 1.984 ± 0.0083 | 1.88 ± 0.024
UAGUGC | 1.95 ± 0.038 | 1.712 ± 0.014
CAUCUG | 1.97 ± 0.022 | 1.92 ± 0.081
CAUCUA | 2.01 ± 0.12 | 1.85 ± 0.055
CAUCUC | 1.957 ± 0.0025 | 2.01 ± 0.021
CAUCUU | 2 ± 0.027 | 1.93 ± 0.047
AAUCGA | 1.92 ± 0.076 | 1.63 ± 0.034
AAUCGU | 1.94 ± 0.023 | 1.69 ± 0.022
AAUCGC | 1.92 ± 0.03 | 1.82 ± 0.053
UCAAUG | 1.85 ± 0.035 | 1.702 ± 0.0043
UCAAUA | 1.91 ± 0.049 | 1.76 ± 0.021
UCAAUU | 1.96 ± 0.0097 | 1.89 ± 0.023
GAUAUU | 1.8969 ± 0.0013 | 1.84 ± 0.038
GAUAUC | 1.91 ± 0.03 | 1.908 ± 0.0029
CAUGCA | 1.979 ± 0.013 | 1.688 ± 0.016
CAUGCC | 1.92 ± 0.1 | 1.84 ± 0.028
UAUCGA | 1.92 ± 0.035 | 1.76 ± 0.046
UAUCGU | 1.9 ± 0.052 | 1.7 ± 0.091

Variant | normalized RNA/DNA level with ligand (log10) [1] | normalized RNA/DNA level without ligand (log10) [2]
AAGUGC | 1.879 ± 0.018 | 1.53 ± 0.036
AAUUAU | 1.92 ± 0.026 | 1.82 ± 0.022
AAUGGU | 1.925 ± 0.016 | 1.592 ± 0.0071
AAUGGC | 1.929 ± 0.0094 | 1.79 ± 0.02
AAGUCC | 1.893 ± 0.016 | 1.81 ± 0.072
GCAAGG | 1.84 ± 0.04 | 1.35 ± 0.032
GCAAGU | 1.93 ± 0.036 | 1.69 ± 0.043
GCAAGC | 1.89 ± 0.074 | 1.575 ± 0.0013
UAUCCC | 1.95 ± 0.045 | 1.9 ± 0.023
UAUCCA | 1.918 ± 0.0099 | 1.904 ± 0.011
UAUCCU | 1.958 ± 0.0052 | 1.9 ± 0.03
CCACGG | 1.91 ± 0.028 | 1.85 ± 0.025
CCACGU | 1.93 ± 0.069 | 1.827 ± 0.0023
CCACGA | 1.95 ± 0.089 | 1.881 ± 0.0042
CCACGC | 2.01 ± 0.015 | 1.864 ± 0.0022
CAUCGC | 1.97 ± 0.064 | 1.9 ± 0.021
CAUCGU | 2 ± 0.038 | 1.94 ± 0.025
CAUCGG | 1.92 ± 0.055 | 1.63 ± 0.036
AAUAUU | 1.93 ± 0.088 | 1.88 ± 0.031
AAUAUC | 1.95 ± 0.055 | 1.945 ± 0.0067

Variant | normalized RNA/DNA level with ligand (log10) [1] | normalized RNA/DNA level without ligand (log10) [2]
GCACCG | 1.89 ± 0.023 | 1.62 ± 0.058
GCACCC | 1.86 ± 0.021 | 1.78 ± 0.035
GCACCA | 1.939 ± 0.016 | 1.88 ± 0.023
UAUAAA | 1.89 ± 0.025 | 1.77 ± 0.04
UAUAAC | 1.9 ± 0.025 | 1.829 ± 0.017
UAUCUA | 1.92 ± 0.059 | 1.89 ± 0.024
UAUCUU | 1.97 ± 0.044 | 1.9 ± 0.043
UAUCUG | 1.904 ± 0.0025 | 1.708 ± 0.0037
UAUCUC | 2 ± 0.021 | 1.99 ± 0.031
GAUCUC | 1.939 ± 0.0052 | 1.976 ± 0.0046
GAUCUA | 1.95 ± 0.055 | 1.86 ± 0.033
GAUCUU | 1.96 ± 0.028 | 1.943 ± 0.0084
GAUCUG | 1.92 ± 0.051 | 1.58 ± 0.039
UAUGGA | 1.906 ± 0.012 | 1.65 ± 0.02
UAUUUA | 1.93 ± 0.07 | 1.93 ± 0.053
UAUUUU | 1.94 ± 0.044 | 1.86 ± 0.05
UAUUUC | 1.974 ± 0.01 | 1.911 ± 0.019
UAUUUG | 1.93 ± 0.039 | 1.78 ± 0.026
